According to patent publication US20230399395A1 (published 2023):

Key:
human IL5 [1] = biological target: T1, human IL5 (human, UniProt P05113 20-134, biotinylated (IL5-biotin) in Examples 2, 5, 6, 9 and 11; site not stated); test: ELISA
human IL5 [2] = biological target: T1, human IL5; test: flow cytometry blocking IL5/IL5R
human IL5 [3] = biological target: T1, human IL5; test: BLI
human IL5 [4] = biological target: T1, human IL5; test: flow

Binder	EC50 (human IL5 [1])	IC50 (human IL5 [2])	Kd (human IL5 [3])	IC50 (human IL5 [4])
Nb25 (VHH) VHH: QVQLQESGGGSVQAGGSLRLSCAASEYTYSRYCMGWFRQVPGKEREGVATIDSDGSTSYADSVKGRFTISKDNAKNTLYLQMNSLKPEDTAMYYCAARYFYIATTGLRPCGEYEYNYWGQGTQVTVSS	0.0427 µg/mL	2.62 µg/mL	0.491 nM	
HuNb21-Fc (antibody, V domains shown) VH: EVQLQESGGGLVQPGGSLRLSCAASGYPYSGDYCMGWFRQAPGKEREGVAAFYTGGGSTYYADSVKGRFTISRDNSKNTLYLQMNSLRAEDTAVYYCAADPWSVYGGSCGVKDPNPKAFNYWGQGTLVTVSS				5.96 µg/mL
Nb21 (VHH) VHH: QVQLQESGGGSAQAGGSLKLSCVVSGYPYSGDYCMGWFRQAPGKEREGVAAFYTGGGSTYYADSVKGRFTTSQDNATSTFHLQMNSLKPEDTATYYCAADPWSVYGGSCGVKDPNPKAFNYWGQGTQVTVSS	0.0357 µg/mL	1.57 µg/mL	0.629 nM	
Nb66 (VHH) VHH: QVQLQESGGGSVQAGGSLRLSCAASGYTVSSNMGWFRQAPGKEREGVAAIYPDGATYYADSVKGRFTISQDNAENTVYLQMNSLKPEDTAMYYCAADLAFNGLGTLALHGYWGQGTQVTVSS	0.0327 µg/mL	1.17 µg/mL	< 0.001 nM	
HuNb66-Fc (antibody, V domains shown) VH: EVQLQESGGGLVQPGGSLRLSCAASGYTVSSNMGWFRQAPGKEREGVAAIYPDGATYYADSVKGRFTISRDNSENTLYLQMNSLRAEDTAMYYCAADLAFNGLGTLALHGYWGQGTLVTVSS				5.73 µg/mL
Nb92 (VHH) VHH: QVQLQESGGGLVQPGGSLRLSCAASGFTFSNYYMSWVRQAPGKGLEWVSSISSDGSNTYYEDSVKGRFTISRDNANNTLYLQMNSLKSEDTALYHCATDLYDDSWYDHWGQGTQVTVSS	0.0432 µg/mL	2.29 µg/mL	0.385 nM	
